# Publication PMC10314921, “Eltrombopag directly activates BAK and induces apoptosis” (Cell Death & Disease, 2023)
# B1: BAK lacking its transmembrane domain (BAKΔTM), wild type [human] / itself (parent)
# chain: EPALPSASEEQVAQDTEEVFRSYVFYRHQQEQEAEGVAAPADPEMVTLPLQPSSTMGQVGRQLAIIGDDINRRYDSEFQTMLQHLQPTAENAYEYFTKIATSLFESGINWGRVVALLGFGYRLALHVYQHGLTGFLGQVTRFVVDFMLHHCIARWIAQRGGWVAALNLGNG
# Variants of: B1
# Experiment: size exclusion chromatography (BAK oligomerization assay)
# Settings: with itself; with Eltro (3.4 mM in panels a, b); CHAPS buffer, 1 h at 25 °C; Superdex75; parent: 54; read off a plot
row,Variant,screen value [%]
1,EPALPSASEEQVAQDTEEVFRSYVFYRHQQEQEAEGVAAPADPEMVTLPLQPSSTMGQVGRQLAIIGDDINRRYDSEFQTMLQHLQPTAENAYEYFTKIATSLFESGINWGRVVALLGFGYRLALHVYQHGLTGFLGQVTEFVVDFMLHHCIARWIAQRGGWVAALNLGNG [chain 1 R141E],39
2,EPALPSASEEQVAQDTEEVFRSYVFYRHQQEQEAEGVAAPADPEMVTLPLQPSSTMGQVGRQLAIIGDDINRRYDSEFQTMLQHLQPTAENAYEYFTKIATSLFESGINWGRVVALLGFGYRLALHVYQHGLTGFLGQVTAFVVDFMLHHCIARWIAQRGGWVAALNLGNG [chain 1 R141A],42
